The target in series [1] is T1, His-SPL7 (SBP domain) (Arabidopsis, UniProt Q8S9G8 122-228).
T1 sequence: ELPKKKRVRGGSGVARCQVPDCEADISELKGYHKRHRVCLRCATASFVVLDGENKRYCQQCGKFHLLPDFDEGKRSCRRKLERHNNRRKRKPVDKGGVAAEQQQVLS
Briefly: EMSA; Chemiluminescent EMSA Kit (Beyotime), manufacturer's protocol; buffer, salt, pH and temperature not stated. The following applies: protein: recombinant; tags: 6xHis (pET-28a); label: 5' biotin (probe); blunt. (In general: A gel shift assay detects complexes by their altered migration in electrophoresis.)

Series [2] concerns the target T1, His-SPL7 (SBP domain). Briefly: competition; cold mutant against biotin-N1; Chemiluminescent EMSA Kit (Beyotime), manufacturer's protocol; buffer, salt, pH and temperature not stated. The following applies: protein: recombinant; tags: 6xHis (pET-28a); blunt.

Data on five molecules can be found in publication PMC9266912, “CITF1 Functions Downstream of SPL7 to Specifically Regulate Cu Uptake in Arabidopsis”.

B1: ProFRO4-G (dsDNA)
DNA 1: ACCCGTACAACGTATTCGTTACGAACCAATTTCTA
DNA 2: TAGAAATTGGTTCGTAACGAATACGTTGTACGGGT
Turning to B1, in series [1], the binding result is “binds”.

B2: ProFRO5-G (dsDNA)
DNA 1: CTATCATGTACGTTTTTAAGAGTTTCGTACAAATTCACGT
DNA 2: ACGTGAATTTGTACGAAACTCTTAAAAACGTACATGATAG
Regarding B2, the binding result in series [1] is “binds”.

B3: ProCOPT2-G (dsDNA)
DNA 1: GATGATGTACTTGTACTACAGTACAACACATAC
DNA 2: GTATGTGTTGTACTGTAGTACAAGTACATCATC
B3: the binding result in series [1] is given as “binds”.

B4: ProCITF1-G (dsDNA)
DNA 1: CCATTTGTACTGCATAAAGACCCCCCACGTACATACAT
DNA 2: ATGTATGTACGTGGGGGGTCTTTATGCAGTACAAATGG
As to B4, the binding result in series [1] was “binds”.

B5: mProCITF1-G (dsDNA)
DNA 1: CCATTTGGCCTGCATAAAGACCCCCCACGGCCATACAT
DNA 2: ATGTATGGCCGTGGGGGGTCTTTATGCAGGCCAAATGG
With B5, the binding result in series [2] is reported as “no binding”.
